Where “and” joins values, the source holds several entries; their conditions need not be identical. Equal entries are not always repeated. One block for each substance: values may come before it.
Tests used:
[1] = target: bovine IgG whole molecules (reagent grade, Sigma) (bovine); assay: sandwich ELISA; capture BD on B-DNA well; IgG mixture; detected with aB-AP
[2] = target: dog IgG whole molecules (reagent grade, Sigma) (dog); assay: sandwich ELISA; biotinylated antibody directly on streptavidin well; IgG mixture; detected with aD-AP
[3] = target: mouse IgG whole molecules (Pierce) (mouse); assay: sandwich ELISA; capture CD on C-DNA well; IgG mixture; detected with aM-AP
[4] = target: dog IgG whole molecules (reagent grade, Sigma) (dog); assay: sandwich ELISA; capture AD on A-DNA well; IgG mixture; detected with aD-AP
[5] = target: bovine IgG whole molecules (reagent grade, Sigma) (bovine); assay: sandwich ELISA; biotinylated antibody directly on streptavidin well; IgG mixture; detected with aB-AP
[6] = target: mouse IgG whole molecules (Pierce) (mouse); assay: sandwich ELISA; capture BD on B-DNA well; IgG mixture; detected with aM-AP
[7] = target: bovine IgG whole molecules (reagent grade, Sigma) (bovine); assay: sandwich ELISA; capture AD on A-DNA well; IgG mixture; detected with aB-AP
[8] = target: bovine IgG whole molecules (reagent grade, Sigma) (bovine); assay: sandwich ELISA; capture CD on C-DNA well; IgG mixture; detected with aB-AP
[9] = target: dog IgG whole molecules (reagent grade, Sigma) (dog); assay: sandwich ELISA; capture BD on B-DNA well; IgG mixture; detected with aD-AP
[10] = target: dog IgG whole molecules (reagent grade, Sigma) (dog); assay: sandwich ELISA; capture CD on C-DNA well; IgG mixture; detected with aD-AP
[11] = target: mouse IgG whole molecules (Pierce) (mouse); assay: sandwich ELISA; biotinylated antibody directly on streptavidin well; IgG mixture; detected with aM-AP
[12] = target: mouse IgG whole molecules (Pierce) (mouse); assay: sandwich ELISA; capture AD on A-DNA well; IgG mixture; detected with aM-AP
[13] = target: bovine IgG whole molecules (reagent grade, Sigma) (bovine); assay: sandwich ELISA; capture BM on B-DNA well; IgG mixture; detected with aB-AP
[14] = target: bovine IgG whole molecules (reagent grade, Sigma) (bovine); assay: sandwich ELISA; capture CM on C-DNA well; IgG mixture; detected with aB-AP
[15] = target: mouse IgG whole molecules (Pierce) (mouse); assay: sandwich ELISA; capture BM on B-DNA well; IgG mixture; detected with aM-AP
[16] = target: mouse IgG whole molecules (Pierce) (mouse); assay: sandwich ELISA; capture CM on C-DNA well; IgG mixture; detected with aM-AP
[17] = target: dog IgG whole molecules (reagent grade, Sigma) (dog); assay: sandwich ELISA; capture AM on A-DNA well; IgG mixture; detected with aD-AP
[18] = target: mouse IgG whole molecules (Pierce) (mouse); assay: sandwich ELISA; capture AM on A-DNA well; IgG mixture; detected with aM-AP
[19] = target: dog IgG whole molecules (reagent grade, Sigma) (dog); assay: sandwich ELISA; capture CM on C-DNA well; IgG mixture; detected with aD-AP
[20] = target: bovine IgG whole molecules (reagent grade, Sigma) (bovine); assay: sandwich ELISA; capture AM on A-DNA well; IgG mixture; detected with aB-AP
[21] = target: dog IgG whole molecules (reagent grade, Sigma) (dog); assay: sandwich ELISA; capture BM on B-DNA well; IgG mixture; detected with aD-AP
[22] = target: mouse IgG whole molecules (Pierce) (mouse); assay: ELISA on mouse IgG-coated plate, A405, against controls A and B
[23] = target: dog IgG whole molecules (reagent grade, Sigma) (dog); assay: sandwich ELISA; capture AB on A-DNA well; IgG mixture; detected with aD-AP
[24] = target: mouse IgG whole molecules (Pierce) (mouse); assay: sandwich ELISA; capture BB on B-DNA well; IgG mixture; detected with aM-AP
[25] = target: bovine IgG whole molecules (reagent grade, Sigma) (bovine); assay: sandwich ELISA; capture CB on C-DNA well; IgG mixture; detected with aB-AP
[26] = target: dog IgG whole molecules (reagent grade, Sigma) (dog); assay: sandwich ELISA; capture CB on C-DNA well; IgG mixture; detected with aD-AP
[27] = target: bovine IgG whole molecules (reagent grade, Sigma) (bovine); assay: sandwich ELISA; capture AB on A-DNA well; IgG mixture; detected with aB-AP
[28] = target: mouse IgG whole molecules (Pierce) (mouse); assay: sandwich ELISA; capture CB on C-DNA well; IgG mixture; detected with aM-AP
[29] = target: dog IgG whole molecules (reagent grade, Sigma) (dog); assay: sandwich ELISA; capture BB on B-DNA well; IgG mixture; detected with aD-AP
[30] = target: mouse IgG whole molecules (Pierce) (mouse); assay: sandwich ELISA; capture AB on A-DNA well; IgG mixture; detected with aM-AP
[31] = target: bovine IgG whole molecules (reagent grade, Sigma) (bovine); assay: sandwich ELISA; capture BB on B-DNA well; IgG mixture; detected with aB-AP

- absorbance reading (405 nm) [1]: 57
- absorbance reading (405 nm) [2]: 334 and 413 and 941
- absorbance reading (405 nm) [3]: 26
- absorbance reading (405 nm) [4]: 673
- absorbance reading (405 nm) [5]: 28 and 26 and 75
- absorbance reading (405 nm) [6]: 31
- absorbance reading (405 nm) [7]: 84
- absorbance reading (405 nm) [8]: 23
- absorbance reading (405 nm) [9]: 481
- absorbance reading (405 nm) [10]: 102
- absorbance reading (405 nm) [11]: 20 and 24 and 35
- absorbance reading (405 nm) [12]: 73
Substance: biotinylated rabbit anti-dog IgG (#B-7640), polyclonal rabbit IgG (antibody)

- absorbance reading (405 nm) [13]: 30
- absorbance reading (405 nm) [14]: 8
- absorbance reading (405 nm) [15]: 346
- absorbance reading (405 nm) [5]: 15 and 31 and 19
- absorbance reading (405 nm) [16]: 49
- absorbance reading (405 nm) [17]: 8
- absorbance reading (405 nm) [11]: 177 and 189 and 186
- absorbance reading (405 nm) [18]: 533
- absorbance reading (405 nm) [19]: 5
- absorbance reading (405 nm) [20]: 45
- absorbance reading (405 nm) [21]: 4
- signal-to-noise ratio [22]: 60
Substance: biotinylated rabbit anti-mouse IgG (#B-8520), polyclonal rabbit IgG (antibody)

- absorbance reading (405 nm) [23]: 20
- absorbance reading (405 nm) [24]: 153
- absorbance reading (405 nm) [25]: 90
- absorbance reading (405 nm) [5]: 279 and 319 and 265
- absorbance reading (405 nm) [26]: 9
- absorbance reading (405 nm) [27]: 729
- absorbance reading (405 nm) [28]: 24
- absorbance reading (405 nm) [11]: 50 and 64 and 61
- absorbance reading (405 nm) [29]: 9
- absorbance reading (405 nm) [30]: 146
- absorbance reading (405 nm) [31]: 591
Substance: biotinylated rabbit anti-bovine IgG (#B-7140), polyclonal rabbit IgG (antibody)

From patent US7569341
